The values that follow come from patent US20220073563A1.

The target in this assay is GLP-2R (UniProt O95838). The assay is described as follows: cell-based or functional assay.
GLP-2R, sequence (O95838 whole entry): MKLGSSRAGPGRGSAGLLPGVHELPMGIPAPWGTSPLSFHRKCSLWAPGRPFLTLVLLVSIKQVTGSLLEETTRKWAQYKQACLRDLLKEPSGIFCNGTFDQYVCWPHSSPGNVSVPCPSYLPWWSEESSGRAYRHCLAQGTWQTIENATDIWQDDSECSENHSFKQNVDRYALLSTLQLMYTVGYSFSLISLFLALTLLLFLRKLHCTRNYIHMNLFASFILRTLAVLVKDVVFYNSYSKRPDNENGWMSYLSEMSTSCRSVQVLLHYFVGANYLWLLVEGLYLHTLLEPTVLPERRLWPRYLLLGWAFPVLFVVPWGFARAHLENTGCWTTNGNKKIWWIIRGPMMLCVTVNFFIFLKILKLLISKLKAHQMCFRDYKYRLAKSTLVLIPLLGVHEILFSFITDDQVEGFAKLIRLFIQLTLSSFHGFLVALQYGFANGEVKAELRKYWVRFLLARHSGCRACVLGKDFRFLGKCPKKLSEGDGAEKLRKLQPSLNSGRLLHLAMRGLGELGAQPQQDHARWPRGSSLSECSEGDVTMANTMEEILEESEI

“GLP-2 (from UniProt P01275 146-178) (peptide)” displayed an EC50, luciferase reporter in GLP-2R/Luc-CHO cells (6 h stimulation) of 4.7 nM.
